The text below walks through data of publication PMC5376975, “Structural studies of RFCC tf18 reveal a novel chromatin recruitment role for Dcc1”.

The target in series [1] is T1, Dcc1 triple mutant (Saccharomyces cerevisiae, UniProt P25559 90-380, K364A;R367A;R380A).
T1 sequence: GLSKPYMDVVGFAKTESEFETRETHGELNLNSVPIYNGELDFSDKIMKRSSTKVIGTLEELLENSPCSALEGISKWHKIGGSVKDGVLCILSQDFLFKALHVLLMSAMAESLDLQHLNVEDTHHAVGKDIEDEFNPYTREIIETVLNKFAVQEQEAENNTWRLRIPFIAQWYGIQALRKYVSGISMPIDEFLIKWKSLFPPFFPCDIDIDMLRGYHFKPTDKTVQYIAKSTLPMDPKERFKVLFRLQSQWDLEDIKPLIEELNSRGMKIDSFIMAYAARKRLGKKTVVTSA
The series can be described thus: EMSA; EMSA, 6% native gel in 0.5x TBE, 4 C, DNA 1 uM unless stated; binding buffer, salt and pH not stated (protein storage 10 mM Tris pH 7.5, 150 mM NaCl, 0.5 mM TCEP for the complex). The note with it: protein: recombinant.

Series [2] deals with T2, Dcc1 dWH3 (Saccharomyces cerevisiae, UniProt P25559 90-318, del319-380).
T2 sequence: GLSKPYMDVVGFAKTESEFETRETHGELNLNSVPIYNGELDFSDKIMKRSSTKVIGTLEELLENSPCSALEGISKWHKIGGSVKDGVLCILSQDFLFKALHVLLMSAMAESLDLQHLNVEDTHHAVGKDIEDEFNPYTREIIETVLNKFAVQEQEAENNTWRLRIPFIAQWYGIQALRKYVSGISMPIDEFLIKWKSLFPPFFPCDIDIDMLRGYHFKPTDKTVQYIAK
The series can be described thus: EMSA; also none at reduced DNA, overexposed gel; EMSA, 6% native gel in 0.5x TBE, 4 C, DNA 1 uM unless stated; binding buffer, salt and pH not stated (protein storage 10 mM Tris pH 7.5, 150 mM NaCl, 0.5 mM TCEP for the complex). The note with it: protein: recombinant; label: 5' 6-FAM on sense strand. In general terms: Mobility shift assays separate free from complexed probe on a gel.

Consider TTTTTTTTTTTTTTTTTTTTTTTTT (ssDNA) [25-mer oligo d(T)], for which the binding result in series [1] (label: 5' 6-FAM) is given as “no binding”.

B1: 22-mer dsDNA (dsDNA)
DNA 1: TCTCCACAGGAAACGGAGGGGT
DNA 2: ACCCCTCCGTTTCCTGTGGAGA
Consider B1, for which the binding result in series [1] (label: 5' 6-FAM on sense strand) and in series [2] was “no binding” each time.
